# Test results taken from patent publication US20230312739A1 (BIOTHEUS, published 2023).
# Where a chain is given by its changes, count along the chain named.
# T1: human CD73 on the cell surface (tumor cells endogenously expressing human CD73; CHOS-human CD73) (human, UniProt P21589 27-549)
# T1 construct: The endogenous CD73 of the human tumor lines (MDA-MB-231, Calu6, SK-ME-S, H2030, SKLU1, BT549, A375, HCC44) is treated as the same protein
# T1 sequence: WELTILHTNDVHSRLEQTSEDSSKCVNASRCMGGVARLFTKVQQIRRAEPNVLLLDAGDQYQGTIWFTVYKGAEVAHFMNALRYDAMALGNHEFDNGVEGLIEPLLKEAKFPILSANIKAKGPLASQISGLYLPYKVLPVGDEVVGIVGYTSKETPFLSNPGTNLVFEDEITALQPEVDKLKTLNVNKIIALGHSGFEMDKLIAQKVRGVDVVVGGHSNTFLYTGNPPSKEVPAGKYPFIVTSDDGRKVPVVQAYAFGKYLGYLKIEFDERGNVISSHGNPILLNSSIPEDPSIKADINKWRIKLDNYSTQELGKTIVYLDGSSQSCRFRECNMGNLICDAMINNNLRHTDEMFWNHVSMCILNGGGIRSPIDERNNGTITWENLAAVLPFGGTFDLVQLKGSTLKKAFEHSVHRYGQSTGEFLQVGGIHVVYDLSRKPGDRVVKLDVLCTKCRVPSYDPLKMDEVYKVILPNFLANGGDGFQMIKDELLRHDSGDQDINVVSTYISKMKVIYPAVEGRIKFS
# T2: CD73 on cynomolgus macaques CD3+CD8+ T cells (cynomolgus macaques, UniProt A0A2K5V5U7 27-549)
# T2 construct: whole, on cells; also called cynomolgus macaques T cells; cynomolgus macaques PBMC
# T2 sequence: T1 sequence with M199T, T350A, V466I
# B1: murine antibody 13D12 (antibody, V domains shown)
# VH: DVKLQESGPAMVKPSQSLSLTCTVTGYSITSGYDWHWIRLFPGNKLEWMGYISYSGYTDYSPSLKSRISITHDTSKNHFFLKLHSVTTEDTATYYCTRGDHSYAMDYWGQGTSVTVS
# VL: DIVMTQSHKFMSTSVGDRVSITCKASQAVGTAVAWYQQKPGQSPKLLIYWASSRHTGVPDRFTGSRSGTDFTLTISSVQSEDLADYFCQQYSSYPLTFGGGTNLEIK
# notes: Mouse monoclonal antibody purified from hybridoma supernatant; also called mouse monoclonal antibody 13D12
# Experiments:
# [1] = target: T1, human CD73 on the cell surface (tumor …); test: full-field cell scanning analyzer (Celigo), percent fluorescent cells, SKLU1 cells endogenously expressing human CD73
# Method: (§1) Experimental method: 10,000 cells were plated on a flat-bottom 96-well plate with 100 μL DMEM+10% FBS/well, cultured overnight so that the cells adhered to the well, and the supernatant was discarded on the next day. Serial 3-fold dilutions of antibody for 8 points were performed by diluting ⅓ of the total volume (100 μL) in 200 μL DMEM. 100 μL of the diluted antibody was added to each well of the cell plate (the supernatants of fused clones or subclones were used for screening), 100 μL of DMEM was added to the corresponding negative control well, and incubation was performed at room temperature for 1 hour. After the supernatant was discarded, 100 μL of secondary antibody (DyLight488 goat anti-mouse IgG (Abcam, Cat. No. ab97015)) was added to each well at a concentration of 5 μg/mL (diluted in DMEM), and incubation was performed for 0.5 hours at room temperature. After staining, the supernatant was discarded, followed by washing once with PBS+2% FBS, then 100 μL of PBS+2% FBS was added to each well, and then reading was performed on analyzer. A full-field cell scanning analyzer (Nexcelom Company, model Celigo® Image Cytometer) was used to measure the reading of the experimental plate. […] The binding effect of the anti-CD73 antibody to the CD73-expressing cell line was determined according to the percentage. […]
# [2] = target: T1, human CD73 on the cell surface (tumor …); test: full-field cell scanning analyzer (Celigo), percent fluorescent cells, CHOS cells recombinantly expressing human CD73
# Method: as §1
# [3] = target: T1, human CD73 on the cell surface (tumor …); test: full-field cell scanning analyzer (Celigo), percent fluorescent cells, BT549 cells endogenously expressing human CD73
# Method: as §1
# [4] = target: T1, human CD73 on the cell surface (tumor …); test: full-field cell scanning analyzer (Celigo), percent fluorescent cells, SK-ME-S cells endogenously expressing human CD73
# Method: as §1
# [5] = target: T2, CD73 on cynomolgus macaques CD3+CD8+ T …; test: flow cytometry on cynomolgus macaque PBMC, CD3+CD8+ T cells, donor 1300M
# Method: Monkey blood samples from two donors (1132F and 1300M) were obtained from Medicilon. Peripheral blood mononuclear cells (PBMCs) were isolated using a Ficoll density gradient centrifugation system. The PBMCs were incubated with the antibody to be tested, then the antibodies bound on the cells were stained with fluorochrome-labeled secondary antibodies (DyLight488 goat anti-mouse IgG, Abcam Cat. No. ab97015; DyLight488 goat anti-human IgG, Abcam Cat. No. ab97003), and the fluorochrome-labeled antibodies against CD3+ and CD8+ were used to recognize T cells. Together with the unstained control samples and the fluorescence compensation control samples, all the samples were run on a flow cytometer to detect the binding of the antibodies to cynomolgus macaques T cells.
binder,measurement,setting,value
B1,EC50,[1],2.46 µg/mL
same,EC50,[2],0.44 µg/mL
same,EC50,[3],1.78 µg/mL
same,EC50,[4],1.72 µg/mL
same,MFI FC (fold change of mean fluorescence intensity),[5],2.8 fold
